Test results as given in publication PMC9897468 (Proceedings of the National Academy of Sciences of the …, 2022).

B1: full-length mouse KIF5AA homodimer (kinesin-1), unlabeled (natural protein, UniProt P33175 1-1027, looked up)
chain: MAETNNECSIKVLCRFRPLNQAEILRGDKFIPIFQGDDSVIIGGKPYVFDRVFPPNTTQEQVYHACAMQIVKDVLAGYNGTIFAYGQTSSGKTHTMEGKLHDPQLMGIIPRIARDIFNHIYSMDENLEFHIKVSYFEIYLDKIRDLLDVTKTNLSVHEDKNRVPFVKGCTERFVSSPEEILDVIDEGKSNRHVAVTNMNEHSSRSHSIFLINIKQENVETEQKLSGKLYLVDLAGSEKVSKTGAEGAVLDEAKNINKSLSALGNVISALAEGTKSYVPYRDSKMTRILQDSLGGNCRTTMFICCSPSSYNDAETKSTLMFGQRAKTIKNTASVNLELTAEQWKKKYEKEKEKTKAQKETIAKLEAELSRWRNGENVPETERLAGEDSALGAELCEETPVNDNSSIVVRIAPEERQKYEEEIRRLYKQLDDKDDEINQQSQLIEKLKQQMLDQEELLVSTRGDNEKVQRELSHLQSENDAAKDEVKEVLQALEELAVNYDQKSQEVEEKSQQNQLLVDELSQKVATMLSLESELQRLQEVSGHQRKRIAEVLNGLMRDLSEFSVIVGNGEIKLPVEISGAIEEEFTVARLYISKIKSEVKSVVKRCRQLENLQVECHRKMEVTGRELSSCQLLISQHEAKIRSLTEYMQTVELKKRHLEESYDSLSDELARLQAHETVHEVALKDKEPDTQDAEEVKKALELQMENHREAHHRQLARLRDEINEKQKTIDELKDLNQKLQLELEKLQADYERLKNEENEKSAKLQELTFLYERHEQSKQDLKGLEETVARELQTLHNLRKLFVQDVTTRVKKSAEMEPEDSGGIHSQKQKISFLENNLEQLTKVHKQLVRDNADLRCELPKLEKRLRATAERVKALEGALKEAKEGAMKDKRRYQQEVDRIKEAVRYKSSGKRGHSAQIAKPVRPGHYPASSPTNPYGTRSPECISYTNNLFQNYQNLHLQAAPSSTSDMYFASSGATSVAPLASYQKANMDNGNATDINDNRSDLPCGYEAEDQAKLFPLHQETAAS

How the values were obtained:
[1] = target: APC-mGFP (UniProt Q61315 1-2845); test: TIRF-M in vitro motility reconstitution
[2] = target: B1; test: TIRF-M in vitro motility reconstitution

| binding result [1] | binding result [2] | Binder |
| --- | --- | --- |
| binds | – | B1 |
| – | binds | C-terminal APC fragment (APC-C), residues 2,163 to 2,845 (domain or fragment, UniProt Q61315 2163-2845, looked up, Alexa647 label (APC-C-647, in the TIRF-M experiments)) KGPRILKPGEKSTLEAKKIESENKGIKGGKKVYKSLITGKIRSNSEISSQMKQPLPTNMPSISRGRTMIHIPGLRNSSSSTSPVSKKGPPLKTPASKSPSEGPGATTSPRGTKPAGKSELSPITRQTSQISGSNKGSSRSGSRDSTPSRPTQQPLSRPMQSPGRNSISPGRNGISPPNKLSQLPRTSSPSTASTKSSGSGKMSYTSPGRQLSQQNLTKQASLSKNASSIPRSESASKGLNQMSNGNGSNKKVELSRMSSTKSSGSESDSSERPALVRQSTFIKEAPSPTLRRKLEESASFESLSPSSRPDSPTRSQAQTPVLSPSLPDMSLSTHPSVQAGGWRKLPPNLSPTIEYNDGRPTKRHDIARSHSESPSRLPINRAGTWKREHSKHSSSLPRVSTWRRTGSSSSILSASSESSEKAKSEDERHVSSMPAPRQMKENQVPTKGTWRKIKESDISPTGMASQSASSGAASGAESKPLIYQMAPPVSKTEDVWVRIEDCPINNPRSGRSPTGNTPPVIDSVSEKGSSSIKDSKDSKDTHGKQSVGSGSPVQTVGLETRLNSFVQVEAPEQKGTEAKPGQSNPVSIAETAETCIAERTPFSSSSSSKHSSPSGTVAARVTPFNYNPSPRKSSADSTSARPSQIPTPVSTNTKKRDSKTDITESSGAQSPKRHSGSYLVTSV |
